Article PMC4081072, “Structure and semi-sequence-specific RNA binding of Nrd1”

What was measured:
Nrd1 307-491 WT [1] = target: T1, Nrd1 307-491 WT (Saccharomyces cerevisiae, UniProt P53617 307-491); experiment: fluorescence anisotropy; FA: 10 nM RNA, 50 mM sodium phosphate pH 8, 150 mM NaCl, 10 mM beta-mercaptoethanol, 20 C (protein stock in 300 mM NaCl); NMR: same buffer with 300 mM NaCl, 20; details: protein: recombinant, tags: C-terminal His6
T1 sequence: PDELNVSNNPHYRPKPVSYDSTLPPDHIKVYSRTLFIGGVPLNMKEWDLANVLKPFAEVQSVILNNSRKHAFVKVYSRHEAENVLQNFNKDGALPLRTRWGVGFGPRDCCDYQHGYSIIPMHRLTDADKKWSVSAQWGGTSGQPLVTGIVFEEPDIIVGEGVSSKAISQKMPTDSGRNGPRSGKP

Nrd1 307-491 WT [2] = target: T1, Nrd1 307-491 WT; experiment: fluorescence anisotropy; prolonged incubation between aliquots; FA: 10 nM RNA, 50 mM sodium phosphate pH 8, 150 mM NaCl, 10 mM beta-mercaptoethanol, 20 C (protein stock in 300 mM NaCl); NMR: same buffer with 300 mM NaCl, 20; details: protein: recombinant; tags: C-terminal His6; label: 5' fluorescein or TAMRA (FA); unlabeled (NMR); may form quadruplex when free
Nrd1 307-491 H376A = target: T2, Nrd1 307-491 H376A (Saccharomyces cerevisiae, UniProt P53617 307-491, H376A); experiment: fluorescence anisotropy; FA: 10 nM RNA, 50 mM sodium phosphate pH 8, 150 mM NaCl, 10 mM beta-mercaptoethanol, 20 C (protein stock in 300 mM NaCl); NMR: same buffer with 300 mM NaCl, 20; details: protein: recombinant; tags: C-terminal His6; label: 5' fluorescein or TAMRA (FA); unlabeled (NMR)
T2 sequence: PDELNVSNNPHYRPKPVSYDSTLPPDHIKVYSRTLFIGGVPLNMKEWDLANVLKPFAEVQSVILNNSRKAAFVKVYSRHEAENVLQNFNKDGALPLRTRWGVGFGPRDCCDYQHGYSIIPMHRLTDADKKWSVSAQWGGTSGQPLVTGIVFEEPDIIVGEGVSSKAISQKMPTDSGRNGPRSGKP

Nrd1 307-491 D417A = target: T3, Nrd1 307-491 D417A (Saccharomyces cerevisiae, UniProt P53617 307-491, D417A); experiment: as above; details: protein: recombinant; tags: C-terminal His6; label: 5' fluorescein or TAMRA (FA); unlabeled (NMR)
T3 sequence: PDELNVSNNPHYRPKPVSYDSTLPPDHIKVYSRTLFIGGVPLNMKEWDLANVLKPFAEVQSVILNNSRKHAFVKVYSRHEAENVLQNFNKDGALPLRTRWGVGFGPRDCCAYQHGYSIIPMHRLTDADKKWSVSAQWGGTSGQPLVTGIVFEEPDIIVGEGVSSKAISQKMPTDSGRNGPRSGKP

Nrd1 307-491 R429D = target: T4, Nrd1 307-491 R429D (Saccharomyces cerevisiae, UniProt P53617 307-491, R429D); experiment: as above; details: protein: recombinant; tags: C-terminal His6; label: 5' fluorescein or TAMRA (FA); unlabeled (NMR)
T4 sequence: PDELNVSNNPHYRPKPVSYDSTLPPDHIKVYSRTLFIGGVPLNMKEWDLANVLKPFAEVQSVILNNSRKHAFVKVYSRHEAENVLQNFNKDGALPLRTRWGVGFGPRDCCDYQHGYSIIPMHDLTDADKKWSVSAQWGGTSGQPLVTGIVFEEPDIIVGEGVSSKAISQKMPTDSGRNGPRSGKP

Nrd1 307-491 F342A = target: T5, Nrd1 307-491 F342A (Saccharomyces cerevisiae, UniProt P53617 307-491, F342A); experiment: as above; details: protein: recombinant; tags: C-terminal His6; label: 5' fluorescein or TAMRA (FA); unlabeled (NMR)
T5 sequence: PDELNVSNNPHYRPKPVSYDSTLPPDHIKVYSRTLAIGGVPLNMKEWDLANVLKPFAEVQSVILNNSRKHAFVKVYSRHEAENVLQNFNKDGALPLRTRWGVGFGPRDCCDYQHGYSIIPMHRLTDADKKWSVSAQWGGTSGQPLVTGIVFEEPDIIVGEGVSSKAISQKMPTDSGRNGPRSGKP

Nrd1 307-491 T431R = target: T6, Nrd1 307-491 T431R (Saccharomyces cerevisiae, UniProt P53617 307-491, T431R); experiment: as above; details: protein: recombinant; tags: C-terminal His6; label: 5' fluorescein or TAMRA (FA); unlabeled (NMR)
T6 sequence: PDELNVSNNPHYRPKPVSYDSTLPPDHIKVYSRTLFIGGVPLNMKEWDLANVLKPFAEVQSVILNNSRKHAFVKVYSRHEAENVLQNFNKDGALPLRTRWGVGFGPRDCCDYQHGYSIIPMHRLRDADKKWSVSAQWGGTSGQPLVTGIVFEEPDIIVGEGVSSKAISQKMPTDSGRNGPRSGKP

Nrd1 307-491 F378A = target: T7, Nrd1 307-491 F378A (Saccharomyces cerevisiae, UniProt P53617 307-491, F378A); experiment: as above; details: protein: recombinant; tags: C-terminal His6; label: 5' fluorescein or TAMRA (FA); unlabeled (NMR)
T7 sequence: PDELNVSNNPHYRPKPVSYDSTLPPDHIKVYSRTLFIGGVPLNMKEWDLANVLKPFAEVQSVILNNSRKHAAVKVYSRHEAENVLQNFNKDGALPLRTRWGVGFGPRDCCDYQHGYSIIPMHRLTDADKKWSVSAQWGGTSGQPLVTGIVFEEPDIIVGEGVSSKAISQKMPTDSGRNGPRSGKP

Nrd1 307-491 G409A = target: T8, Nrd1 307-491 G409A (Saccharomyces cerevisiae, UniProt P53617 307-491, G409A); experiment: as above; details: protein: recombinant; tags: C-terminal His6; label: 5' fluorescein or TAMRA (FA); unlabeled (NMR)
T8 sequence: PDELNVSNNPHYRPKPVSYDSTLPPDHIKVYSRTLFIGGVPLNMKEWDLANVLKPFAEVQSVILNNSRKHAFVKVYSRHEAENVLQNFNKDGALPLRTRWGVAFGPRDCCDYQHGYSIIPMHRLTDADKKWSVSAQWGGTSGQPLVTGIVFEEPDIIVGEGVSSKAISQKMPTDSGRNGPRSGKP

Nrd1 307-491 K435D = target: T9, Nrd1 307-491 K435D (Saccharomyces cerevisiae, UniProt P53617 307-491, K435D); experiment: as above; details: protein: recombinant; tags: C-terminal His6; label: 5' fluorescein or TAMRA (FA); unlabeled (NMR)
T9 sequence: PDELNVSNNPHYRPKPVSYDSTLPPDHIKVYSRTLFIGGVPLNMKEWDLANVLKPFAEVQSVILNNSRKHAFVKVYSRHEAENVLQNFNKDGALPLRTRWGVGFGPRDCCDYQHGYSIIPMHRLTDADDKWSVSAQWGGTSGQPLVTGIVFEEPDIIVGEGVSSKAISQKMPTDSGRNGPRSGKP

Binder AAAAAAA (ssRNA) [A7] has a Kd (Nrd1 307-491 WT [1]; label: 5' fluorescein or TAMRA) of 32.1 ± 0.9 µM.

AGCGUGAAUUAAGUCUUGAUAUAUAA (ssRNA) [win78dNrd1] gave a Kd (Nrd1 307-491 WT [1]; label: 5' fluorescein or TAMRA) of 2.5 ± 0.2 µM.

With GCGGGCG (ssRNA) the Kd (Nrd1 307-491 WT [1]; label: 5' fluorescein or TAMRA) was 13.2 ± 0.5 µM.

For CAGCGUC (ssRNA), the Kd (Nrd1 307-491 WT [1]; label: 5' fluorescein or TAMRA) was 37.7 ± 1.1 µM.

For GGGGGGG (ssRNA) [G7], the Kd (Nrd1 307-491 WT [2]) was 5.7 ± 1.2 µM.

With UUUUUUU (ssRNA) [U7] the Kd (Nrd1 307-491 WT [1]; label: 5' fluorescein or TAMRA) was 69.8 ± 3.2 µM.

UCUUG (ssRNA) showed a Kd (Nrd1 307-491 WT [1]; label: 5' fluorescein or TAMRA) of 41.1 ± 2.7 µM.

AGCGUGAAUUAAGUCUUGCACACACA (ssRNA) [win78dNrd1dAUrichCA] was tested, and the Kd (Nrd1 307-491 WT [1]; label: 5' fluorescein or TAMRA) was 5.4 ± 0.2 µM.

GUUGUUG (ssRNA) gave a Kd (Nrd1 307-491 WT [1]; label: 5' fluorescein or TAMRA) of 13 ± 0.7 µM.

In the case of AGCGUGAAUUAAGAGCGUAUAUAUAA (ssRNA) [win78dNrd1dNab3], the Kd (Nrd1 307-491 WT [1]; label: 5' fluorescein or TAMRA) is reported as 7.9 ± 0.3 µM.

Work on GUAAUGAAUUAAGUCUUGAUAUAUAA (ssRNA) [win78wt] yielded a Kd (Nrd1 307-491 WT [1]; label: 5' fluorescein or TAMRA) of 1.5 ± 0.1 µM.

AUAUAUA (ssRNA) showed a Kd (Nrd1 307-491 WT [1]; label: 5' fluorescein or TAMRA) of 11.3 ± 0.5 µM.

GCGGGGC (ssRNA) was tested, and the Kd (Nrd1 307-491 H376A) was 37.5 ± 3.7 µM, the Kd (Nrd1 307-491 D417A) was 31.7 ± 6 µM and the Kd (Nrd1 307-491 WT [1]; label: 5' fluorescein or TAMRA (FA), unlabeled (NMR)) was 9.8 ± 0.3 µM. The Kd (Nrd1 307-491 R429D) was 60.1 ± 3.5 µM, the Kd (Nrd1 307-491 F342A) was 29.5 ± 4 µM and the Kd (Nrd1 307-491 T431R) was 48 ± 2.9 µM. It also gave a Kd (Nrd1 307-491 F378A) of 73.4 ± 10.7 µM, a Kd (Nrd1 307-491 G409A) of 30.3 ± 3.9 µM and a Kd (Nrd1 307-491 K435D) of 50.5 ± 10.8 µM.

With CACACAC (ssRNA) the Kd (Nrd1 307-491 WT [1]; label: 5' fluorescein or TAMRA) was 108 ± 4 µM.

For AUUAUUA (ssRNA), the Kd (Nrd1 307-491 WT [1]; label: 5' fluorescein or TAMRA) was 14.8 ± 0.4 µM.

In the case of UGGA (ssRNA), the Kd (Nrd1 307-491 WT [1]; label: 5' fluorescein or TAMRA) is reported as 94.1 ± 3.9 µM.

CCCCUGAAUUAAGCCCCCCCCCCCCC (ssRNA) [win78polyC] was tested, and the Kd (Nrd1 307-491 WT [1]; label: 5' fluorescein or TAMRA) was 7.2 ± 0.5 µM.

UGGUGGU (ssRNA) gave a Kd (Nrd1 307-491 WT [1]; label: 5' fluorescein or TAMRA) of 6.8 ± 0.6 µM.
